The text below walks through data of IntAct's records for PubMed 20543817.

Experiment [1] concerns the target nlgnx_human NLGN4X (UniProt Q8N0W4).
Experiment [2] addresses Nlgn1, Q62765-2.
Experiment [3] has as its target nlgnx_human NLGN4X (UniProt Q8N0W4). This is another data set of the same source.
Experiment [4] concerns the target Nlgn1, Q62765-2. The source holds these as a separate data set.
The target in experiment [5] is nlgnx_human NLGN4X (UniProt Q8N0W4). This is another data set of the same source.
Experiment [6] deals with Nlgn1, Q62765-2. The source holds these as a separate data set.
Chain of Nlgn1, Q62765-2 (Q62765 other isoform, or with tags, fused parts or gaps): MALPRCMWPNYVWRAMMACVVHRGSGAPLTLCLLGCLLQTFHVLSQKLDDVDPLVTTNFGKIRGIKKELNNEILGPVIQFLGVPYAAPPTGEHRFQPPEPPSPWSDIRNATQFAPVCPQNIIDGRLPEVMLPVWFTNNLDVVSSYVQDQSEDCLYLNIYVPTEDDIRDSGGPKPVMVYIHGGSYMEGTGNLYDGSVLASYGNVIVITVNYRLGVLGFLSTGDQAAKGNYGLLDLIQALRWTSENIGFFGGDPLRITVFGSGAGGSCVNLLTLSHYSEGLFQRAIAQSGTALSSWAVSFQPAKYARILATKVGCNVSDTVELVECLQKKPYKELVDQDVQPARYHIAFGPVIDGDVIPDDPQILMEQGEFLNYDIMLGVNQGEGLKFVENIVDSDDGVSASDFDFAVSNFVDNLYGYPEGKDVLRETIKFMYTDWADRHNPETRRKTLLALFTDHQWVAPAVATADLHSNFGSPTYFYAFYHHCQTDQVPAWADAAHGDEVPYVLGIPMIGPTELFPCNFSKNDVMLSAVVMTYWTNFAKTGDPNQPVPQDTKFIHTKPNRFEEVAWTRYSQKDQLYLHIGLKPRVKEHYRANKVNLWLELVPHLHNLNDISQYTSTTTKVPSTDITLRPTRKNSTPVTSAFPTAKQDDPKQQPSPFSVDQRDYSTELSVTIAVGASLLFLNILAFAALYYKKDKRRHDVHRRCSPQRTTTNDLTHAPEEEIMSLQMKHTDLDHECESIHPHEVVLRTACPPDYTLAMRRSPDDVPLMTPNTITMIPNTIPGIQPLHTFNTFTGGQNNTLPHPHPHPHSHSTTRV
Experiment [7] deals with nlgnx_human NLGN4X (UniProt Q8N0W4). The source holds these as a separate data set.
Experiment [8] addresses Nlgn1, Q62765-2. This is another data set of the same source.

Chain of Neurexin-1-beta (Rattus norvegicus (Rat)), Q63373-3 N103A (Q63373 other isoform, or with tags, fused parts or gaps N103A): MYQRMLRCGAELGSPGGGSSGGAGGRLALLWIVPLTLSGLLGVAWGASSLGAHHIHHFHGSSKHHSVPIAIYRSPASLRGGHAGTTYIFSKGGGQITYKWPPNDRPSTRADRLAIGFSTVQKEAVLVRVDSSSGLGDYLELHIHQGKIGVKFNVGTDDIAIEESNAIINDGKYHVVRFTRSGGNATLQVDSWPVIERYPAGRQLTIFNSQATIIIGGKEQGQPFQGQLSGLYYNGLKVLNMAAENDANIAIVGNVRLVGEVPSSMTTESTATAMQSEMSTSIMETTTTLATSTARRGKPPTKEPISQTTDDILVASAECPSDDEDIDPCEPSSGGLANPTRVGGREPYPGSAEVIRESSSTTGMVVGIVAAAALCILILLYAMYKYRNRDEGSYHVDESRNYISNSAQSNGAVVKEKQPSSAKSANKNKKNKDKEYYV
Chain of Neurexin-1-beta (Rattus norvegicus (Rat)), Q63373-3 R202A (Q63373 other isoform, or with tags, fused parts or gaps R202A): as the sequence (Q63373 other isoform, or with tags, fused parts or gaps N103A) above
Chain of Neurexin-1-beta (Rattus norvegicus (Rat)), Q63373-3 R109A (Q63373 other isoform, or with tags, fused parts or gaps R109A): as the sequence (Q63373 other isoform, or with tags, fused parts or gaps N103A) above
Chain of Neurexin-1-beta (Rattus norvegicus (Rat)), Q63373-3 I206A (Q63373 other isoform, or with tags, fused parts or gaps I206A): as the sequence (Q63373 other isoform, or with tags, fused parts or gaps N103A) above

Regarding “Neurexin-1-beta (Rattus norvegicus (Rat)), Q63373-3 I206A”, the “effect of a mutation on the interaction” value in experiment [1] and in experiment [2] was “disrupting interaction” in each case.
With “Neurexin-1-beta (Rattus norvegicus (Rat)), Q63373-3 N103A”, the “effect of a mutation on the interaction” value in experiment [3] and in experiment [4] was “decreasing interaction” in each case.
Turning to “Neurexin-1-beta (Rattus norvegicus (Rat)), Q63373-3 R109A”, the “effect of a mutation on the interaction” value was “disrupting interaction” in experiment [5] and “decreasing interaction” in experiment [6].
Turning to “Neurexin-1-beta (Rattus norvegicus (Rat)), Q63373-3 R202A”, the “effect of a mutation on the interaction” value in experiment [7] is recorded as “disrupting interaction”; in experiment [8] it was “decreasing interaction”.
